Laboratory results reported in patent US20220332804A1 (CSL INNOVATION, published 2022).
Positions count from the first letter of the chain named.

Assays:
Assay in all cases: SPR, antibody captured, C2 as analyte;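 further: biacore at 37 °C, anti-C2 mAbs held by immobilised goat anti-human IgG, C2 alanine or serine mutants injected, double-referenced sensorgrams fitted to a 1:1 kinetic or steady-state model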
human C2 H446A = target: T1, human C2 H446A (human, UniProt P06681 21-752)
T1 sequence: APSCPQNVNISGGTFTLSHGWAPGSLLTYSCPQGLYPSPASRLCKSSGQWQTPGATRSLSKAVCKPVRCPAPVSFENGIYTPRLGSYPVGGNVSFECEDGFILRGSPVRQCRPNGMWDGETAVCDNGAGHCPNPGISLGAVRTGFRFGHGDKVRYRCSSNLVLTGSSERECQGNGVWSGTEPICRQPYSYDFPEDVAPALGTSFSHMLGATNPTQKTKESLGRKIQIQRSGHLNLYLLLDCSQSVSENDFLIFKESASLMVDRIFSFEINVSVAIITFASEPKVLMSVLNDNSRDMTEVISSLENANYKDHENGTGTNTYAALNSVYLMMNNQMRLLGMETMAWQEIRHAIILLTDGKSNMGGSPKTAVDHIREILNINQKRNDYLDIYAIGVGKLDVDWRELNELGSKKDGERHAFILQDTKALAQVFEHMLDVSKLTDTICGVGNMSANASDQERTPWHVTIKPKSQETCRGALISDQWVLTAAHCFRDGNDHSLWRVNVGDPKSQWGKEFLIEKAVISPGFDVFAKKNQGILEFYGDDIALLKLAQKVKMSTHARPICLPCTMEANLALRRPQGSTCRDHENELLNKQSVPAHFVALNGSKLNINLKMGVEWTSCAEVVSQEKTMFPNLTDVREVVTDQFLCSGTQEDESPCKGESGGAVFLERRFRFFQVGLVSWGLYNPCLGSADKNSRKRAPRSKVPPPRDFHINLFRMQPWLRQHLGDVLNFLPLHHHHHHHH

human C2 D269A = target: T2, human C2 D269A (human, UniProt P06681 21-752)
T2 sequence: T1 sequence with D249A, A426H

human C2 F270A = target: T3, human C2 F270A (human, UniProt P06681 21-752)
T3 sequence: T1 sequence with F250A, A426H

human C2 R519A = target: T4, human C2 R519A (human, UniProt P06681 21-752)
T4 sequence: T1 sequence with A426H, R499A

B1: RF16-242 (antibody, human IgG4 S228P, lambda, V domains shown)
VH: EVQLLQSGAEVKKPGESLKISCKGSGYSFTSYWIGWVRQMPGKGLEWMGIIYPGDSDTRYSPSFQGQVTISADKSISTAYLQWSSLKASDTAMYYCARRGHYGDYFDYWGQGTLVTVSS
VL: SYELTQPPSVSVSPGQTARITCSGDALPKKYAYWYHQKSGQAPVLVIYEDRRRPSEIPERFSGSSSGTMATLTITGAQVEDEGVYFCYSRDRAGNQRVFGGGTQLTVLG
notes: pH-dependent anti-C2 antibody from a phage display library
With B1 the Kd (human C2 H446A) was 16.1 nM, the Kd (human C2 D269A) was 12.9 nM and the Kd (human C2 F270A) was 104 nM. It also gave a Kd (human C2 R519A) of 7.6 nM.
